According to patent US20210388079A1 (IMMATICS BIOTECHNOLOGIES, published 2021):
Where two headings read alike, the source gives them in different places.

Assays:
Assay in all cases: cell-based or functional assay
[1] = target: T1, HLA-A*02-presented SPINK2-001 on target cells (T2 cells loaded with SPINK2-001 peptide); A375 cells … (human)
[2] = target: T1, HLA-A*02-presented SPINK2-001 on target …; remark: listed apart in the source
[3] = target: T1, HLA-A*02-presented SPINK2-001 on target …; remark: listed apart in the source

B1: TCR R44P3E7, alpha and beta chains expressed in human primary CD8+ T-cells by RNA electroporation (TCR, V domains shown)
V domain 1: RGEDVEQSLFLSVREGDSSVINCTYTDSSSTYLYWYKQEPGAGLQLLTYIFSNMDMKQDQRLTVLLNKKDKHLSLRIADTQTGDSAIYFCAEINNNARLMFGDGTQLVVKP
V domain 2: AAGVIQSPRHLIKEKRETATLKCYPIPRHDTVYWYQQGPGQDPQFLISFYEKMQSDKGSIPDRFSAQQFSDYHSELNMSSLELGDSALYFCASSPPDQNTQYFGPGTRLTVLE
**Q.** Which results are given for B1?
**A.** EC50 (read off the curve), IFNγ release, donor TCRA-0023 [1]: ~0.6 nM; EC50 (read off the curve), IFNγ release, donor TCRA-0024 [1]: ~1 nM

B2: TCR R59P2A7, alpha and beta chains expressed in human primary CD8+ T-cells by RNA electroporation (TCR, V domains shown)
V domain 1: QKEVEQNSGPLSVPEGAIASLNCTYSDRGSQSFFWYRQYSGKSPELIMSIYSNGDKEDGRFTAQLNKASQYVSLLIRDSQPSDSATYLCAVQPHDMRFGAGTRLTVKP
V domain 2: SQTIHQWPATLVQPVGSPLSLECTVEGTSNPNLYWYRQAAGRGLQLLFYSVGIGQISSEVPQNLSASRPQDRQFILSSKKLLLSDSGFYLCAWSGLVAEQFFGPGTRLTVLE
**Q.** What does the source list for B2?
**A.** EC50 (read off the curve), IFNγ release, donor TCRA-0023 [2]: ~10 nM; EC50 (read off the curve), IFNγ release, donor TCRA-0024 [2]: ~50 nM

B3: TCR R40P1C2, alpha and beta chains expressed in human primary CD8+ T-cells by RNA electroporation (TCR, V domains shown)
V domain 1: QTVTQSQPEMSVQEAETVTLSCTYDTSESDYYLFWYKQPPSRQMILVIRQEAYKQQNATENRFSVNFQKAAKSFSLKISDSQLGDAAMYFCAYLNYQLIWGAGTKLIIKP
V domain 2: EPEVTQTPSHQVTQMGQEVILRCVPISNHLYFYWYRQILGQKVEFLVSFYNNEISEKSEIFDDQFSVERPDGSNFTLKIRSTKLEDSAMYFCASSEMTAVGQYFGPGTRLTVTE
**Q.** For B3, which “EC50 (read off the curve), IFNγ release, donor TCRA-0024” value [3] is on record?
**A.** Its value is about 3 nM.
